To fix the notation:
B1: HuJ3 E44R (VHH)
VHH: EVQLVESGGGLVQPGGSLRLSCAASGSIFNQYAMAWFRQAPGKRREFVAGMGAVPHYGEFVKGRFTISRDNSKNTVYLQMNSLRAEDTAVYYCARSKSTYISYNSNGYDYWGQGTLVTVS
B2: HuJ3 V54E (VHH)
VHH: B1 VHH with R44E, V54E
B3: HuJ3 S102R (VHH)
VHH: B1 VHH with R44E, S102R

Results on 3 molecules are retold here after PMC11405125 (Briefings in Bioinformatics, 2024).

Numbering of substitutions follows the chain as printed. In names and notes the source's numbering stands.

This experiment deals with HIV-1 Bal gp140 (Human immunodeficiency virus 1, isolate …, UniProt Q2MKA8, strain). Description: ELISA.
For orientation: EC50 means the concentration that produces a half-maximal response. In turn, B1 gave an EC50 of 1.7 nM.
As for B2, the figure is 2.31 nM.
B3 showed an EC50 of 10.4 nM.
